Source: patent US20240352121A1, “LAIR-1 AGONISTIC ANTIBODIES AND METHODS OF USE THEREOF” (NEXTCURE, INC., priority 2023, published 2024)

Tests used:
Assay type in all cases: cell-based, human
[1] = tested on: healthy T cells or NK cells; experiment: Ex vivo killing of T cells or NK cells of a VEN/AZA-treated AML patient; settings: same patient sample
Procedure: Ex vivo killing of VEN/AZA-treated AML patient leukemic cells (FIG. 7A) or T cells or NK cells (FIG. 7B). Values normalized to vehicle control. Lines represent linear regression of NC525 concentration versus normalized cell killing. […] FIGS. 7D and 7E show in vivo leukemic growth as measured by whole-body luminescence of MV4-11-luciferase cells (FIG. 7D) or survival (FIG. 7E) of CDX mice treated with 10 mg/kg isotype control (gray) or NC525 (red) or 100 mg/kg VEN (pink) or 0.5 mg/kg AZA (blue) or combination therapy (green or yellow, respectively). BLoD, below limit of detection. n=9 mice per group. P values determined by 2-way ANOVA or log-rank (Mantel-Cox) test, respectively. FIGS. 7F and 7G show leukemic growth in the blood (FIG. 7F) and in the spleen and BM (FIG. 7G) at week 8 after transplant of AML PDX mice treated with vehicle (gray), VEN/AZA (blue), NC525 (red), or VEN/AZA plus NC525 (green). n=5-10 mice per group. AML cells in spleen and BM compared from 4-5 mice per group. Data are shown as the mean±SEM. P values determined by 2-way ANOVA or 1-way ANOVA with multiple comparisons.

[2] = tested on: MV4-11-LAIR-1 Overexpressing cells; experiment: In vitro culture of MV4-11-LAIR-1 overexpressing cells with or without anti-IgG crosslinking
Procedure: FIGS. 4A-4O show the collagen matrix is vital to LAIR-1 induced AML cell death. (FIGS. 4A-C). Flow cytometry quantification of primary live, dead, or apoptotic total blood leukocytes after ex vivo treatment with 10 μg/mL IgG isotype control (gray) or LAIR-1 mAb (red) in the presence (FIG. 4A) or absence (FIG. 4B) of exogenous collagen, or (FIG. 4C), CD451^Lo SSC^Lo blast cells in the presence of isotype control or LAIR-1 mAb. N=3 technical replicates. […] Each dot represents an individual donor. Red shading highlights surface expression >20000 arbitrary units. Blue shading highlights expression <20000 units. Line represents simple linear regression. […] N=4-7 donors. […] Mean pixel density from Western blotting normalized to isotype control condition and graphed relative to total SHP-1. N=3 technical replicates. FIGS. 4G and 4H show mean pixel density from phospho-array of AML patient PBMCs treated ex vivo with 10 μg/mL of IgG isotype control (gray), 50 μg/mL coated collagen (white), or 10 μg/mL LAIR-1 mAb+coated collagen (red) for G, MAPK activity or (FIG. 4H), mTOR and NF-kB activity. N=2 technical replicates. […] FIGS. 4M and 4N) 4E-BP1 expression as measured by Lumit assay (FIG. 4M) or cleaved caspase-7 as measured by Western blot (FIG. 4N) of cells treated as shown in FIGS. 4I-4K. Mean pixel density normalized to histone-3 for triplicate samples. […] Values normalized to isotype for each respective condition. n=3-4 technical replicates. P values calculated by Student's t test. Error bars represent SEM.

[3] = tested on: bone-marrow cells from healthy control donors
Procedure: Cryopreserved AML bone-marrow cells or healthy donor CD34 cells were thawed and plated in 96 wells plates. Cells were engaged with the indicated concentrations of LAIR-1 mAb or isotype control for 30 min at room temperature. Subsequently, cells were diluted in IMDM with 2% FBS and mixed with semisolid methylcellulose-based medium (MethoCult H4435 Enriched, StemCell Technologies, Vancouver, Canada) which contains human cytokines (stem cell factor, IL-3, IL-6, EPO, G-CSF, GM-CSF). Then, between 1e4 and 2.5e5 LSCs, or, between 1e3 and 5e3 healthy donor CD34 cells per well were plated on 6-well SmartDishes (StemCell Technologies, Vancouver, Canada). The cell-loaded plates were incubated at 37° C. with 5% CO2 in air and ≥95% humidity. On day 14, colony formation was counted by STEMvision (StemCell Technologies, Vancouver, Canada), an automated and standardized colony counting instrument. The automated results were confirmed and edited manually by the STEMvision Colony Marker software.

B1: LAIR-1 mAb: humanized agonist anti-LAIR-1 mAb, IgG1 backbone; h11B3 VL-2 (SEQ ID NO: 16), h11B3 VH-3 (SEQ ID NO: 27) (antibody, V domains shown)
VH: EVQLVESGGGLVQPGGSLKLSCAASGFTFNTNAMYWVRQAPGKGLEWVGRIRSKSSNYATYYAASVKGRFTISRDDSKNTLYLQMNSLKTEDTAVYYCVRGGSGFFAYWGQGTLVTVSS
VL: DIQMTQSPSSLSASLGDRVTITCKASEDIYIRLAWYQQKPGKAPRLLISTATSLETGVPSRFSGSGSGTDYTFTISSLQPEDIATYYCQQYWSTPYTFGGGTRLEIK
modifications: IgG1 constant regions; Synthetic: h11B3 VH-3; Synthetic: h11B3 VL-2
With B1 the “impact on healthy T cells or NK cells” value [1] was “no impact”, the “growth of LAIR-1 Overexpressing cells” value ([2]; LAIR-1 mAb alone, vs isotype control) was “only moderately suppressed” and the proliferation of cells ([2]; anti-IgG crosslinking conditions, after 3 days of culture) was “completely inhibited”. The “4E-BP1 (mTORC1 target protein)” value ([2]; crosslinking conditions) was “significant suppression”, the “activated caspase-7” value ([2]; crosslinking conditions) was “substantial increase” and the CFU formation [3] was “no change”.
